Results from patent US12329801B2, “Regenerative polypeptides and uses thereof” (JUVENA THERAPEUTICS, INC., priority 2021, dated 2025).

Test system: DM1 human myoblast
Experiment: Myogenic gene expression fold change in DM1 human myoblast
Assay type: cell-based
Conditions: 48 h; BMP7 50 ng/mL, Butyrate 100 nM, IGF2 200 ng/mL
Protocol: Myoblasts were cultured 48 h in the presence of factors (BMP7 50 ng/mL, Butyrate 100 nM, IGF2 200 ng/mL).
Myoblasts were cultured 96 h in the presence of factors (IGF2 200 ng/ml). […] Myoblasts were cultured 48 h in the presence of factors (IGF2 200 ng/mL).
IGF2 was tested individually for its ability to promote proliferation and/or fusion of human muscle progenitor cells from an individual with myotonic dystrophy type 1 (hMD)—a muscular dystrophy caused by mutations in the DMPK1 gene. The effect of IGF2 on myogenic activity was assayed in biological triplicate across a range of concentrations centered around expected physiological levels by adding each factor to hMD myoblasts for 72 hours with daily media changes (DMEM +2% horse serum) and a second pulse of factors at the first media change. After 72 or 96 hours, cells were pulsed for 2-5 hours with EdU (30 uM), ethanol fixed, stained with Hoescht 3342, immunostained for proliferation—as measured by the percent of cells staining positive for EdU (% EdU)-, and immunostained for differentiation—as measured by the increase in cellular area staining positive for embryonic myosin heavy chain (% eMyHC) relative to the negative controls, which received media and vehicle only. Wells were imaged on a Keyence BZ-100 at 4×, the images quantified in Cell Profiler, and the statistics were computed in R. Additionally, RNA was extracted from myoblast and select transcript abundances quantified by qPCR.

B1: BMP7: factor BMP7, 50 ng/mL, tested on DM1 human myoblast (protein, UniProt P18075 293-431, looked up)
Bone morphogenetic protein 7: STGSKQRSQNRSKTPKNQEALRMANVAENSSSDQRQACKKHELYVSFRDLGWQDWIIAPEGYAAYYCEGECAFPLNSYMNATNHAIVQTLVHFINPETVPKPCCAPTQLNAISVLYFDDSSNVILKKYRNMVVRACGCH
In the case of B1, the “MYF5 expression fold change compared to FM (vehicle)” value is reported as 0.709, the “MYOD1 expression fold change compared to FM (vehicle)” value is reported as 0.709 and the “MYOG expression fold change compared to FM (vehicle)” value is reported as 0.361.
